Data from patent US9427478B2, “Enzymatic conjugation of polypeptides” (Innate Pharma, priority 2013, dated 2016).

Tests used:
[1] = SE-HPLC, physical stability after freeze/thaw and shaking; format: physicochemical; details: physical stability study
Experimental: Physical stability was measured after a Freeze/Thaw (F/T) cycle in which ADC products are frozen at least 2 hours at −20° C. and thawed at least 1 hour at room temperature three times and tested 24 h after the last Freeze/Thaw cycle, and after shaking in which ADC products samples are shaken with a “vortex” 3 min at 3000 rpm and tested 24 h after this shaking stress application. […] Measurements were also made by SE-HPLC, performed with the Acquity UPLC from WATERS® with a BEH200 SEC 1.7 μm column. SE-HPLC is used to evaluate soluble and covalent/non-covalent aggregates levels and the proteic fragments that could be generated.

[2] = SE-HPLC, chemical stability on storage; format: physicochemical
Experimental: A chemical stability study monitored the molecular integrity of the ADC products that could be impacted following 3 months storage at +40° C. (thermal stress accelerated degradation storage conditions). Samples stored at +40° C. were compared to samples stored at +5° C., as assessed by SE-HPLC, performed with the Acquity UPLC from WATERS® with a BEH200 SEC 1.7 μm column.

With ADCETRIS ® the “fragments, in words” value [1] was “significant levels of fragments”, the “fragments, in words” value ([2]; chemical stability at 5° C.) was “significant levels of fragments” and the Fragments % ([2]; storage at 5° C., T1 W (1 week)) was 1.77%.
